According to patent US20160051688A1 (Indiana University Research and Technology Corporation, priority 2010, published 2016):
Blank lines part the entries; values can stand above or below the compound they belong to.

Key:
GPR119 = target: T1, GPR119 (Homo sapiens, UniProt Q8TDV5); conditions: CHO cells expressing GPR119; cited from earlier work
T1 construct: expressed in transfected cells; host or cells: CHO
T1 sequence (Q8TDV5 1-335): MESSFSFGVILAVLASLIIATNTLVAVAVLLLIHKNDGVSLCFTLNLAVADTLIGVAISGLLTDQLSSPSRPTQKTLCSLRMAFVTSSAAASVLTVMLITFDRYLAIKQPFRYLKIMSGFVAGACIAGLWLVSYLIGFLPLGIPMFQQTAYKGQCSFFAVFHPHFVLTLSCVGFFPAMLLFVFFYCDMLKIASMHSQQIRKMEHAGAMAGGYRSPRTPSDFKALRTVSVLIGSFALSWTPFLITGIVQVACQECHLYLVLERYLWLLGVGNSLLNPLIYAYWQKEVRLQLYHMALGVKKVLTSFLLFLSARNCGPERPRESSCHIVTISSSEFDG

GLP-1 receptor = GLP-1 receptor (UniProt P43220); assay: cell-based or functional assay
Sequence of GLP-1 receptor (P43220 24-463 limits assumed): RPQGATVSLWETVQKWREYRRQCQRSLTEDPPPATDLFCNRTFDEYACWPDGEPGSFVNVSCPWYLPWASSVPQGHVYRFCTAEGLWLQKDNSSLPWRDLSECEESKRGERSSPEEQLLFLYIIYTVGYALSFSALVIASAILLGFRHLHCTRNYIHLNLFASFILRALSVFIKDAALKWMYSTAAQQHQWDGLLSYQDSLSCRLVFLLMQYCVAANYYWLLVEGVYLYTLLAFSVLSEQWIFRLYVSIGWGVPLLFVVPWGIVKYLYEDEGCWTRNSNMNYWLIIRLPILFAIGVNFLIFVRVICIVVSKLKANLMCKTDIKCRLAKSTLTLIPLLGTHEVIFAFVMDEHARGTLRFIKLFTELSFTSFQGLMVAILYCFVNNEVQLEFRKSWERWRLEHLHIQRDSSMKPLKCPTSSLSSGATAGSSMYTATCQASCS

glucagon receptor = glucagon receptor (UniProt P47871); assay: cell-based or functional assay
Sequence of glucagon receptor (P47871 26-477 limits assumed): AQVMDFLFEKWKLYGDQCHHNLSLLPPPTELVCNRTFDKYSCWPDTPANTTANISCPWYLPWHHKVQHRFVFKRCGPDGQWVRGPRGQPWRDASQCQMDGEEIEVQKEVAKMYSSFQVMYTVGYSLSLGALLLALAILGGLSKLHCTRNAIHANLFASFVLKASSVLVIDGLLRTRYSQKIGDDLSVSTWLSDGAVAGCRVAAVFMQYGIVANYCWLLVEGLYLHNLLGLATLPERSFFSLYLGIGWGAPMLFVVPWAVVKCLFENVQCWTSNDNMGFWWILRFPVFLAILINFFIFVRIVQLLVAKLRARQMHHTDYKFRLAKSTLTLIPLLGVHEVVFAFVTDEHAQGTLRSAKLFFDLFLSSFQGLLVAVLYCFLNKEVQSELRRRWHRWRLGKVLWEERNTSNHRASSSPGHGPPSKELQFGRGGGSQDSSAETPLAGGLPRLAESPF

Compound: CCCCCCCCCCCCCCCCOC[C@@H](O)COP(=O)([O-])OCC[N+](C)(C)C [lyso-platelet activating factor]
cAMP levels (GPR119): increased cAMP levels

Compound: D9, K12E16(Lactam) glucagon(6-39) Cex peptide (Peptide 4 of Table 13)
GLP-1 EC50 (GLP-1 receptor): 18 nM
GLP-1 ECso (GLP-1 receptor): 119 nM
Glu ICso (glucagon receptor): 828 nM
Glucagon IC50 (glucagon receptor): 828 nM

Compound: E9, E16K20(lactam) glucagon(6-39) Cex peptide (Peptide 3 of Table 13)
GLP-1 EC50 (GLP-1 receptor): 36 nM
GLP-1 ECso (GLP-1 receptor): 36 nM
Glu ICso (glucagon receptor): 42 nM
Glucagon IC50 (glucagon receptor): 42 nM

Compound: E9, K12, E16 glucagon(6-39) Cex peptide (Peptide 1 of Table 13)
Glu ICso (glucagon receptor): 762 nM
Glucagon IC50 (glucagon receptor): 762 nM

Compound: E9, K12E16(lactam) glucagon(6-39) Cex peptide (Peptide 2 of Table 13)
GLP-1 EC50 (GLP-1 receptor): 63 nM
GLP-1 ECso (GLP-1 receptor): 63 nM
Glu ICso (glucagon receptor): 2010 nM
Glucagon IC50 (glucagon receptor): 2010 nM

Glucagon IC50 (nM); PA = partial antagonist (glucagon receptor): 49 nM
Compound: [E9, E16K20(lactam), D28]G(2~29) (peptide)

Compound: platelet-activating factor
cAMP levels (GPR119): increased cAMP levels
